Data: article PMC2132754

Target: recombinant mouse α-catenin with a COOH-terminal histidine tag (mouse) (UniProt P26231)
Experiment: co-sedimentation

Chain of UniProt P26231 (P26231 whole entry): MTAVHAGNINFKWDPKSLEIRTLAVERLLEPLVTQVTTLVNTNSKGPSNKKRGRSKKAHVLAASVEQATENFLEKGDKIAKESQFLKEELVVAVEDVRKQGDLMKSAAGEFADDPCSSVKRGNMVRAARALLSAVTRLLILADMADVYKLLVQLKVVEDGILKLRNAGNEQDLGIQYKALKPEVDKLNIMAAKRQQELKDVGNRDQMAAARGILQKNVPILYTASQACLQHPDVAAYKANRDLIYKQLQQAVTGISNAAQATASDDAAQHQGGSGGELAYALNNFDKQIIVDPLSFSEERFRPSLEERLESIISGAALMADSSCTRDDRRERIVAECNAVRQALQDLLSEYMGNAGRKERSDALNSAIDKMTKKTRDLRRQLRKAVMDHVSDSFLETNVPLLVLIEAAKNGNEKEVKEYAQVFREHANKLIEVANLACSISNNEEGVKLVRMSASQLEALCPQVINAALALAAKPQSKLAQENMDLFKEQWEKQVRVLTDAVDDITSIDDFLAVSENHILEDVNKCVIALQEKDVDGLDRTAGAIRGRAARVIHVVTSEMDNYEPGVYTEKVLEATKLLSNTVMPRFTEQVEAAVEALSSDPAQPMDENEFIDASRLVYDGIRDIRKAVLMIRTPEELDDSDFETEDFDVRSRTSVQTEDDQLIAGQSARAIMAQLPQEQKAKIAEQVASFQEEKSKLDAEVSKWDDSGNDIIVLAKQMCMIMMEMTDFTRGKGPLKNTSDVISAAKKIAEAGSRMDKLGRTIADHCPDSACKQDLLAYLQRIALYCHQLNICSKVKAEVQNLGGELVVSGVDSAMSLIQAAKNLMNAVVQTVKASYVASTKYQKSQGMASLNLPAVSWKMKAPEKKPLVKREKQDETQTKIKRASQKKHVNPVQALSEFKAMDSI

- stoichiometry N: 1
Substance: vinculin 90-kD head fragment (V8 protease fragment of chicken gizzard vinculin) (domain or fragment)
